Data as given in publication PMC3168117 (Nature structural & molecular biology, 2011).

Biological target: the molecule itself
Experiment: SEC-MALS

B1: VopL W3-C (residues 115-484: three WH2 motifs and the VCD) (domain or fragment, Vibrio parahaemolyticus, UniProt Q87GE5 115-484, looked up)
chain: NLSKGAPKSSSNSLDSVNEDHSKLMEQIRQGVKLKSATKSLSADKSSADAHSKLMEELLTGGRKLKKVATSDIPAPPPLPSASTSKSPDSRNALLSEIAGFSKDRLRKTGSLETLNSSQSKDKESFEPTTHERLLSEDLFKQSPKLSEQELDELANNLADYLFQAADIDWHQVISEKTRGLTTEEMAKSEHRYVQAFCREILKYPDCYKSADVASPESPKSGGGSVIDVALKRLQTGRERLFTTTDEKGNRELKKGDAILESAINAARMAISTEEKNTILSNNVKSATFEVFCELPCMDGFAEQNGKTAFYALRAGFYSAFKNTDTAKQDITKFMKDNLQAGFSGYSYQGLTNRVAQLEAQLAALSAKLS
  stoichiometry N: 2
